From patent publication US20160250307A1

Biological target: HLA-A*02 (human)
Test: UV-ligand exchange, anti-b2m ELISA; grade: exchange yield >=50%

B1: … (peptide)
peptide: SLTSEIHFL
peptide exchange yield: 50 to 75%
